Measured values published in patent EP1812465B1.

Columns and labels:
PRO87299(ECD)-Fc (human) = experiment: Biacore; PRO87299(ECD)-Fc amine coupled (~9000 RU), HVEM injected at 2µg/ml, against the PR04346-Fc control flow cell
LIGHT expressed on cells = experiment: radioligand binding to transfected cells, Scatchard analysis
[1] = molecular target: PRO87299/LIGHT expressed together on cells (human); experiment: radioligand binding to cells expressing PRO87299 and LIGHT together, Scatchard analysis
[2] = molecular target: HVEM expressed on transfected 293 cells; experiment: radioligand binding to transfected cells, Scatchard analysis
[3] = molecular target: HVEM expressed on transfected 293 cells; experiment: radioligand binding to transfected cells, displacement with unlabelled protein, Scatchard analysis
HVEM-Fc = experiment: Biacore; HVEM-Fc amine coupled (~7500 RU), 8nM PRO87299(ECD)-Fc, read 105 seconds after injection

Work on “HVEM (protein of the SPDI protein library) (receptor)” yielded a response units over control (response units) (PRO87299(ECD)-Fc (human)) of 1200.

Substance HVEM-Fc (Fc fusion) has a Kd (LIGHT expressed on cells) of 7 nM and a Kd [1] of 0.5 nM.

With I-125-LIGHT-FLAG (ligand) the Kd [2] was 2.5 nM.

PRO87299(ECD)-Fc (Fc fusion) was tested, and the Kd [3] was 25 nM and the response units (HVEM-Fc) was 100 RU.
